Three molecules from PMC8605242, “Multiple variants of the human presequence translocase motor subunit Magmas govern the mitochondrial import” (The Journal of Biological Chemistry, 2021) can be followed below.

The labels stand for the following.
T1: GST-Magmas (human, UniProt Q9Y3D7 1-125)
T1 construct: Magmas, human, full length; vector pGEX-KG; also called GST tagged Magmas; source: E. coli (C41), purified
T1 sequence (looked up): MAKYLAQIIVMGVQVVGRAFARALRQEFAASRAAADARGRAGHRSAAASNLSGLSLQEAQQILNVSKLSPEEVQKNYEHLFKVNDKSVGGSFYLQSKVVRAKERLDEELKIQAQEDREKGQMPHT

T2: GST-Magmas-1 (human, UniProt I3L3T0 1-145)
T2 construct: Magmas-1, human variant of Magmas with a unique N-terminal extension, full length; UniProt entry I3L3T0; vector pGEX-KG; also called GST tagged Magmas-1; source: E. coli (C41), purified
T2 sequence (looked up): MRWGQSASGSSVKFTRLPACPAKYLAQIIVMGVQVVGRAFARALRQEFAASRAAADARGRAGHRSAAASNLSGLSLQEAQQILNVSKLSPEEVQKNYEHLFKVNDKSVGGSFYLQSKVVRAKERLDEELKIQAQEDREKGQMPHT

B1: DnaJC19J+T (domain or fragment)
chain: not shown
notes: DnaJC19, human J-protein, N-terminal truncation with the J-domain and predicted MTS (J + T), amino acids 34-112; also called hexahistidine tagged DnaJC19J+T
B2: DnaJC15J+T (domain or fragment)
chain: not shown
notes: DnaJC15, human J-protein, N-terminal truncation with the J-domain and predicted MTS (J + T), amino acids 69-146; also called hexahistidine tagged DnaJC15J+T
B3: hexahistidine tagged Magmas-2 (natural protein, human, UniProt I3L1U7 1-129, looked up)
chain: MAKYLAQIIVMGVQVVGRAFARALRQEFAASRAAADARGRAGHRSAAASNLSGLSLQEAQQILNVSKLSPEEVQKNYEHLFKVNDKSVGGSFYLQSKRSGLSMLPKLISNSWPQAILLPWPPKTLGLHA

A value given as a limit tells only on which side of the number the result lay.

One assay deals with T1, GST-Magmas. Put plainly: pull-down; 1 μM GST alone or GST-Magmas variants held on beads, increasing concentrations of DnaJC19J+T or DnaJC15J+T, 45 min, 24 °C; 50 mM Tris-HCl pH 7.5, 100 mM KCl, 0.2% Triton-X 100, 10% glycerol, 1 mM PMSF; blocked with 0.1% BSA; SDS-PAGE, Coomassie, densitometry. The note with it: both partners purified.
In another assay the target is T2, GST-Magmas-1. Described as above. The note with it: both partners purified.
The target of the assay “DnaJC15J+T” is B2. Put plainly: cell-based or functional assay.
The assay “DnaJC19J+T” has as its target B1. The assay is described as follows: cell-based or functional assay.

Sequence of DnaJC15J+T (Q9Y5T4 69-146): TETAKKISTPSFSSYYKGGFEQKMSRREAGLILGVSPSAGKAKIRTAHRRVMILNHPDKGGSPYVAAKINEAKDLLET
Sequence of DnaJC19J+T (Q96DA6 34-112): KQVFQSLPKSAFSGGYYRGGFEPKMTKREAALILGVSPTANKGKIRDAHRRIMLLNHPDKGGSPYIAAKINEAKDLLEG

Consider B1, for which the binding result with GST-Magmas and with GST-Magmas-1 was “binds” in each case.
For B2, the binding result with GST-Magmas is recorded as “binds”.
As for B3, in the assay with DnaJC15J+T, the “inhibition of the DnaJC15J+T-stimulated ATP hydrolysis of mortalin, single turnover assay, Mortalin-ATP : J-protein : Magmas variant 1:2:4” value was greater than 90%. Moreover, the “inhibition of the DnaJC19J+T-stimulated ATP hydrolysis of mortalin, single turnover assay, Mortalin-ATP : J-protein : Magmas variant 1:2:4” value in the assay with DnaJC19J+T was greater than 90%.
